Measurements reported in patent US20250076311A1 (Chugai, published 2025).

T1: cynomolgus monkey FcγRIIb extracellular domain with C-terminal His-tag (cynomolgus monkey)
T1 construct: also called cyno FcγRIIb; cynoFcγRIIb
T1 chain: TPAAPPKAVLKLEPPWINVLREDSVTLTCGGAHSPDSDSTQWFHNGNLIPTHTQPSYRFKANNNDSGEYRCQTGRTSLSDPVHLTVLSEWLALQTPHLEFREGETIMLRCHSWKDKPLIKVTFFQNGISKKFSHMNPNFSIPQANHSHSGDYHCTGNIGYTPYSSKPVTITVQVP

T2: human FcγRIIaR extracellular domain with C-terminal His-tag (human, UniProt P12318 34-217)
T2 construct: also called human FcγRIIa (type R); FcgRIIaR
T2 chain: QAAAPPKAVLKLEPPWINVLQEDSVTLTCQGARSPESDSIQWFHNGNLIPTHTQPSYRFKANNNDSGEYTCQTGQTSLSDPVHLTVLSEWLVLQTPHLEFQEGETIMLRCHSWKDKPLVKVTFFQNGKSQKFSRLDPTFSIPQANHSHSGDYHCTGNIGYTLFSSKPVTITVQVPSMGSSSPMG

T3: human FcγRIIb extracellular domain with C-terminal His-tag (human, UniProt P31994 43-217)
T3 construct: also called human FcgRIIb; FcgRIIb
T3 sequence: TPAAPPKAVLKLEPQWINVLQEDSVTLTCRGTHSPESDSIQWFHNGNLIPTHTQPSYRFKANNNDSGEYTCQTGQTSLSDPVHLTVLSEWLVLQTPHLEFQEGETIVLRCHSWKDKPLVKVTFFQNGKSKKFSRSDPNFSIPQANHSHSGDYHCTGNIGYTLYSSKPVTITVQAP

T4: cynomolgus monkey FcγRIIIaS extracellular domain with C-terminal His-tag (cynomolgus monkey, UniProt Q8SPW2 21-206 at identity 1.00))
T4 construct: also called cyno FcγRIIIaS; FcgRIIIaS
T4 chain: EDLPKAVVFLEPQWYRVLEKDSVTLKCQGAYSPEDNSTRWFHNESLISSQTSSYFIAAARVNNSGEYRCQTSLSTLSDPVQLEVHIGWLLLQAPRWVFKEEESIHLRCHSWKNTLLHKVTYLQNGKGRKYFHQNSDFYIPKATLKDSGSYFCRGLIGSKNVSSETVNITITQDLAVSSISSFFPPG

T5: cynomolgus monkey FcγRIIa2 extracellular domain with C-terminal His-tag (cynomolgus monkey)
T5 construct: also called cyno FcγRIIa2; FcgRIIa2
T5 chain: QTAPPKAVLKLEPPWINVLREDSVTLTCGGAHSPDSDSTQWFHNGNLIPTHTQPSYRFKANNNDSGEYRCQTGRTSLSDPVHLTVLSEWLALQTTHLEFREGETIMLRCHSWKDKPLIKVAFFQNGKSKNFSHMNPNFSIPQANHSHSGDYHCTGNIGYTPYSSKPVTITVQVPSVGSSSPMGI

T6: human FcγRIIaH extracellular domain with C-terminal His-tag (human, UniProt P12318 34-217)
T6 construct: also called human FcγRIIa (type H); FcgRIIaH
T6 sequence: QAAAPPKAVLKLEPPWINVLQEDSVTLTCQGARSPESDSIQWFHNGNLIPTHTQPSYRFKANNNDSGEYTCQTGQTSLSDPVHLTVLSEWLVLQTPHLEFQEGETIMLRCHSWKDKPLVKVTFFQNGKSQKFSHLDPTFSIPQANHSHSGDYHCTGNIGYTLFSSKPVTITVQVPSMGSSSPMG


Legend:
Assay in all cases: SPR; KD of SG1 / KD of variant
[1] = target: T1, cynomolgus monkey FcγRIIb extracellular …
[2] = target: T2, human FcγRIIaR extracellular domain …
[3] = target: T7, human FcγRIIIaV extracellular domain with C-terminal His-tag (human, UniProt P08637 17-208)
T7 construct: also called human FcgRIIIaV; FcgRIIIaV

[4] = target: T3, human FcγRIIb extracellular domain with …
[5] = target: T4, cynomolgus monkey FcγRIIIaS …
[6] = target: T5, cynomolgus monkey FcγRIIa2 …
[7] = target: T6, human FcγRIIaH extracellular domain …

T7 sequence (P08637 17-208 F176V): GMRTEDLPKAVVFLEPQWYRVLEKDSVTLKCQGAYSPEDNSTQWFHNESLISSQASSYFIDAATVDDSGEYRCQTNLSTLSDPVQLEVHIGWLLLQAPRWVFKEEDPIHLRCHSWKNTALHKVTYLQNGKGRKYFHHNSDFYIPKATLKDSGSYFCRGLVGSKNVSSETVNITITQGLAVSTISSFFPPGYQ

KD fold (SG1 = 1) [1] [fold]	KD fold (SG1 = 1) [2] [fold]	KD fold (SG1 = 1) [3] [fold]	KD fold (SG1 = 1) [4] [fold]	KD fold (SG1 = 1) [5] [fold]	KD fold (SG1 = 1) [6] [fold]	KD fold (SG1 = 1) [7] [fold]	Binder
3.6	3	–	1.8	0.33	–	–	M103205H795-MY270 (heavy chain) with M103202L889-SK1 (light chain) (antibody, human IgG1, kappa, name in EU numbering, Substitutions introduced into M103205H795-SG1; positions in EU numbering) heavy: QVTLKESGPVLVKPTETLTLTCTVSGIDLSHDDISWVRQAPGKGLEWVGIISYAGSTYYASWAKGRLTISKDTSKNQVVLTMTNMDPVDTATYYCARGVPAYSHGGDLWGQGTLVTVSSASTKGPSVFPLAPSSKSTSGGTAALGCLVKDYFPEPVTVSWNSGALTSGVHTFPAVLQSSGLYSLSSVVTVPSSSLGTQTYICNVNHKPSNTKVDKKVEPKSCDKTHTCPPCPAPELLHGPSVFLFPPKPKDTLMISRTPEVTCVVVDVSDEDPEVKFNWYVDGVEVHNAKTKPREEQYNSTYRVVSVLTVLHQDWLNGKEYKCKVSNKALPKPIEKTISKAKGQPREPQVYTLPPSREEMTKNQVSLTCLVKGFYPSDIAVEWESNGQPENNYKTTPKVLDSDGSFFLYSKLTVDKSRWQQGNVFSCSVMHEALHNHYTQKSLSLSP light: DIVMTQSPATLSLSPGERATLSCTSSQSVYHANWLSWFQQKPGQPPKLLIYWASTLAYGVPSRFSGSGSGTDFTLTISSLQPEDAATYYCAGGYGGGRYAFGQGTKVEIKRTVAAPSVFIFPPSDEQLKSGTASVVCLLNNFYPREAKVQWKVDNALQSGNSQESVTEQDSKDSTYSLSSTLTLSKADYEKHKVYACEVTHQGLSSPVTKSFNRGEC
–	–	–	3.8	1.24	–	–	M103205H795-MY272 (heavy chain) with M103202L889-SK1 (light chain) (antibody, human IgG1, kappa, name in EU numbering, Substitutions introduced into M103205H795-SG1; positions in EU numbering) heavy: QVTLKESGPVLVKPTETLTLTCTVSGIDLSHDDISWVRQAPGKGLEWVGIISYAGSTYYASWAKGRLTISKDTSKNQVVLTMTNMDPVDTATYYCARGVPAYSHGGDLWGQGTLVTVSSASTKGPSVFPLAPSSKSTSGGTAALGCLVKDYFPEPVTVSWNSGALTSGVHTFPAVLQSSGLYSLSSVVTVPSSSLGTQTYICNVNHKPSNTKVDKKVEPKSCDKTHTCPPCPAPELLQGPSVFLFPPKPKDTLMISRTPEVTCVVVDVSDEDPEVKFNWYVDGVEVHNAKTKPREEQYNSTYRVVSVLTVLHQDWLNGKEYKCKVSNKALPKPIEKTISKAKGQPREPQVYTLPPSREEMTKNQVSLTCLVKGFYPSDIAVEWESNGQPENNYKTTPKVLDSDGSFFLYSKLTVDKSRWQQGNVFSCSVMHEALHNHYTQKSLSLSP light: DIVMTQSPATLSLSPGERATLSCTSSQSVYHANWLSWFQQKPGQPPKLLIYWASTLAYGVPSRFSGSGSGTDFTLTISSLQPEDAATYYCAGGYGGGRYAFGQGTKVEIKRTVAAPSVFIFPPSDEQLKSGTASVVCLLNNFYPREAKVQWKVDNALQSGNSQESVTEQDSKDSTYSLSSTLTLSKADYEKHKVYACEVTHQGLSSPVTKSFNRGEC

Further lines, the binder ahead of its results:

Binder	KD fold (SG1 = 1) [1] [fold]	KD fold (SG1 = 1) [2] [fold]	KD fold (SG1 = 1) [3] [fold]	KD fold (SG1 = 1) [4] [fold]	KD fold (SG1 = 1) [5] [fold]	KD fold (SG1 = 1) [6] [fold]	KD fold (SG1 = 1) [7] [fold]
M103205H795-MY143 (heavy chain) with M103202L889-SK1 (light chain) (antibody, human IgG1, kappa, name in EU numbering, Substitutions introduced into M103205H795-SG1; positions in EU numbering) heavy: QVTLKESGPVLVKPTETLTLTCTVSGIDLSHDDISWVRQAPGKGLEWVGIISYAGSTYYASWAKGRLTISKDTSKNQVVLTMTNMDPVDTATYYCARGVPAYSHGGDLWGQGTLVTVSSASTKGPSVFPLAPSSKSTSGGTAALGCLVKDYFPEPVTVSWNSGALTSGVHTFPAVLQSSGLYSLSSVVTVPSSSLGTQTYICNVNHKPSNTKVDKKVEPKSCDKTHTCPPCPAPELLSGPSVFLFPPKPKDTLMISRTPEVTCVVVDVSEEDPEVKFNWYVDGVEVHNAKTKPREEQYNSTYRVVSVLTVLHQDWLNGKEYKCKVSNKALPAPIEKTISKAKGQPREPQVYTLPPSREEMTKNQVSLTCLVKGFYPSDIAVEWESNGQPENNYKTTPMVLDSDGSFFLYSKLTVDKSRWQQGNVFSCSVMHEALHNHYTQKSLSLSP light: DIVMTQSPATLSLSPGERATLSCTSSQSVYHANWLSWFQQKPGQPPKLLIYWASTLAYGVPSRFSGSGSGTDFTLTISSLQPEDAATYYCAGGYGGGRYAFGQGTKVEIKRTVAAPSVFIFPPSDEQLKSGTASVVCLLNNFYPREAKVQWKVDNALQSGNSQESVTEQDSKDSTYSLSSTLTLSKADYEKHKVYACEVTHQGLSSPVTKSFNRGEC	3.9	13.1	0.51	6.8	1.29	–	–
M103205H795-MY213 (heavy chain) with M103202L889-SK1 (light chain) (antibody, human IgG1, kappa, name in EU numbering, Substitutions introduced into M103205H795-SG1; positions in EU numbering) heavy: QVTLKESGPVLVKPTETLTLTCTVSGIDLSHDDISWVRQAPGKGLEWVGIISYAGSTYYASWAKGRLTISKDTSKNQVVLTMTNMDPVDTATYYCARGVPAYSHGGDLWGQGTLVTVSSASTKGPSVFPLAPSSKSTSGGTAALGCLVKDYFPEPVTVSWNSGALTSGVHTFPAVLQSSGLYSLSSVVTVPSSSLGTQTYICNVNHKPSNTKVDKKVEPKSCDKTHTCPPCPAPELLNGPSVFLFPPKPKDTLMISRTPEVTCVVVDVSDEDPEVKFNWYVDGVEVHNAKTKPREEQYNSTYRVVSVLTVLHQDWLNGKEYKCKVSNKALPKPIEKTISKAKGQPREPQVYTLPPSREEMTKNQVSLTCLVKGFYPSDIAVEWESNGQPENNYKTTPKVLDSDGSFFLYSKLTVDKSRWQQGNVFSCSVMHEALHNHYTQKSLSLSP light: DIVMTQSPATLSLSPGERATLSCTSSQSVYHANWLSWFQQKPGQPPKLLIYWASTLAYGVPSRFSGSGSGTDFTLTISSLQPEDAATYYCAGGYGGGRYAFGQGTKVEIKRTVAAPSVFIFPPSDEQLKSGTASVVCLLNNFYPREAKVQWKVDNALQSGNSQESVTEQDSKDSTYSLSSTLTLSKADYEKHKVYACEVTHQGLSSPVTKSFNRGEC	11.3	–	0.07	–	0.19	9.8	–
M103205H795-MY228 (heavy chain) with M103202L889-SK1 (light chain) (antibody, human IgG1, kappa, name in EU numbering, Substitutions introduced into M103205H795-SG1; positions in EU numbering) heavy: QVTLKESGPVLVKPTETLTLTCTVSGIDLSHDDISWVRQAPGKGLEWVGIISYAGSTYYASWAKGRLTISKDTSKNQVVLTMTNMDPVDTATYYCARGVPAYSHGGDLWGQGTLVTVSSASTKGPSVFPLAPSSKSTSGGTAALGCLVKDYFPEPVTVSWNSGALTSGVHTFPAVLQSSGLYSLSSVVTVPSSSLGTQTYICNVNHKPSNTKVDKKVEPKSCDKTHTCPPCPAPELLGYPSVFLFPPKPKDTLMISRTPEVTCVVVDVSDEDPEVKFNWYVDGVEVHNAKTKPREELYNSTYRVVSVLTVLHQDWLNGKEYKCKVSNKALPKPIEKTISKAKGQPREPQVYTLPPSREEMTKNQVSLTCLVKGFYPSDIAVEWESNGQPENNYKTTPPVLDSDGSFFLYSKLTVDKSRWQQGNVFSCSVMHEALHNHYTQKSLSLSP light: DIVMTQSPATLSLSPGERATLSCTSSQSVYHANWLSWFQQKPGQPPKLLIYWASTLAYGVPSRFSGSGSGTDFTLTISSLQPEDAATYYCAGGYGGGRYAFGQGTKVEIKRTVAAPSVFIFPPSDEQLKSGTASVVCLLNNFYPREAKVQWKVDNALQSGNSQESVTEQDSKDSTYSLSSTLTLSKADYEKHKVYACEVTHQGLSSPVTKSFNRGEC	–	6.9	0.01	–	0.04	1.6	–
M103205H795-MY269 (heavy chain) with M103202L889-SK1 (light chain) (antibody, human IgG1, kappa, name in EU numbering, Substitutions introduced into M103205H795-SG1; positions in EU numbering) heavy: QVTLKESGPVLVKPTETLTLTCTVSGIDLSHDDISWVRQAPGKGLEWVGIISYAGSTYYASWAKGRLTISKDTSKNQVVLTMTNMDPVDTATYYCARGVPAYSHGGDLWGQGTLVTVSSASTKGPSVFPLAPSSKSTSGGTAALGCLVKDYFPEPVTVSWNSGALTSGVHTFPAVLQSSGLYSLSSVVTVPSSSLGTQTYICNVNHKPSNTKVDKKVEPKSCDKTHTCPPCPAPELLMGPSVFLFPPKPKDTLMISRTPEVTCVVVDVSDEDPEVKFNWYVDGVEVHNAKTKPREEQYNSTYRVVSVLTVLHQDWLNGKEYKCKVSNKALPKPIEKTISKAKGQPREPQVYTLPPSREEMTKNQVSLTCLVKGFYPSDIAVEWESNGQPENNYKTTPKVLDSDGSFFLYSKLTVDKSRWQQGNVFSCSVMHEALHNHYTQKSLSLSP light: DIVMTQSPATLSLSPGERATLSCTSSQSVYHANWLSWFQQKPGQPPKLLIYWASTLAYGVPSRFSGSGSGTDFTLTISSLQPEDAATYYCAGGYGGGRYAFGQGTKVEIKRTVAAPSVFIFPPSDEQLKSGTASVVCLLNNFYPREAKVQWKVDNALQSGNSQESVTEQDSKDSTYSLSSTLTLSKADYEKHKVYACEVTHQGLSSPVTKSFNRGEC	–	–	–	–	1.64	–	2.8
